From the RNAGym collection of RNA variant scans (doi:10.7554/elife.80360) come the findings set out here.

To fix the notation:
B1: HDV Ribozyme (parent)
chain: GGCCGGCAUGGUCCCAGCCUCCUCGCUGGCGCCGGCUGGGCAACAUUCCGAGGGGACCGUCCCCUCGGUAAUGGCGAAUGGGACCCA

This data set covers variants of B1. In words: self-cleavage, relative activity (ratio to wild type); higher = more cleavage; co-transcriptional.
With C44U C84U, the self-cleavage was determined as 0.516.

On to A45G G76U, for which the self-cleavage was 1.12. Then A45C C61G, with 0.6. Then A45G U47G, with 0.767. As for A45C C64G, the self-cleavage turned out to be 0.649. With A45G C66U the figure was 0.92. For A45G C66G, the self-cleavage was found to be 0.811.

As to A45G C66A, the self-cleavage is 0.812.

As to C44U A45U, the self-cleavage was 0.787.

Consider A45C G76U, for which the self-cleavage was found to be 1.01. Then A45U C66G, with 0.919; and A45U C66U, with 1.02; and A45U C66A, with 0.812.

Take C44A C86A: the self-cleavage is 1.08. With C44A C86U the figure was 1.01; with C44U G67C, 0.755; with A45U A87U, 0.734. With A45U A87G the figure was 0.737; with A45U A70C, 0.95. For A45G C57G, the self-cleavage was found to be 1.01.

With A45G A56C, the self-cleavage came out at 1.3.

Regarding A45C A77G, the self-cleavage was found to be 0.534. Then A45C A77U, with 0.142; and C44G U46A, with 0.9. On to A45C A83U, for which the self-cleavage turned out to be 0.356.

In the case of A45C A83C, the self-cleavage stood at 0.0615. With A45C A51U the figure was 0.72; with C44G G55A, 0.787; with C44U A77G, 0.923. With C44G G81C, the self-cleavage was 0.306. Then C44A U79G, with 0.128; and A45U C57A, with 0.906. Regarding A45G U46G, the self-cleavage amounted to 0.643. With C44G G68C the figure was 0.475; with C44U C58U, 0.755.

As to C44U A56U, the self-cleavage came to 0.748. As for C44G G80U, the self-cleavage turned out to be 0.0966. Then C44A G55U, with 0.698. For A45C G50C, the self-cleavage worked out at 0.504.

As for A45C G73U, the self-cleavage was found to be 0.193.

In the case of A45C G73A, the self-cleavage was 0.528. Then A45G G80U, with 0.151; and C44A G67A, with 0.415; and C44A G67U, with 0.658. A45G G74C: the self-cleavage was 0.332.

As for A45G G74A, the self-cleavage was found to be 0.517. With C44A U60A the figure was 0.867; with C44A U60G, 0.554. With C44U U60C the figure was 0.872. On to C44G U65G, for which the self-cleavage was 0.688. Then C44G U65C, with 0.597; and A45U A78U, with 0.155; and A45G A51U, with 0.944.

As for C44G C64U, the self-cleavage turned out to be 0.686. With C44U C62U the figure was 0.443; with A45G A83G, 0.95; with C44U G80A, 0.125. As for C44U G80U, the self-cleavage came to 0.148. Then A45U A83G, with 0.847; and C44A G52C, with 0.902; and A45G C85U, with 1.06.

With A45U G53C, the self-cleavage was found to be 0.778. In the case of A45G G52C, the self-cleavage is 1.01. Regarding A45G G52A, the self-cleavage came to 0.875.

Regarding C44A C63A, the self-cleavage is 0.882. A45G G82U: the self-cleavage amounted to 0.475.

Take C44A U46A: the self-cleavage came out at 0.677. With C44A U46G the figure was 0.785; with C44G A77U, 0.0978; with C44U U79G, 0.727. In the case of C44G A71U, the self-cleavage is 0.962.

On to C44G G59A, for which the self-cleavage was 0.636. For A45G U69G, the self-cleavage amounted to 1.21. As for A45G U69C, the self-cleavage turned out to be 0.72. With A45G U60G the figure was 1.31; with A45G G50A, 0.707; with C44U A78C, 0.113. Consider C44U G73A, for which the self-cleavage stood at 0.946. Take C44G C58G: the self-cleavage is 0.665.

In the case of C44U G76A, the self-cleavage was determined as 0.87. As for C44U G76C, the self-cleavage stood at 0.725.

Turning to C44A G82C, the self-cleavage was found to be 0.0773.

For C44A G82A, the self-cleavage was 0.153. With A45G C58A the figure was 1.18; with C44A U65G, 0.85; with C44A U65C, 0.804. Take C44G A51G: the self-cleavage stood at 0.653. Take C44U U47A: the self-cleavage turned out to be 0.743. Then A45C C48G, with 0.369. With A45G C86U the figure was 0.806.

On to C44G G67C, for which the self-cleavage worked out at 0.755. With A45U C84A the figure was 0.446; with C44U U72C, 0.779; with C44A G68A, 0.704. Then C44G G53C, with 0.733.

Regarding A45U C49U, the self-cleavage was found to be 0.706.

With C44U G53U, the self-cleavage amounted to 0.831. On to C44U G53C, for which the self-cleavage amounted to 0.658.

In the case of C44A C85U, the self-cleavage was found to be 0.727. With C44A C85A the figure was 0.656. Then C44U G54C, with 0.694. With C44U G54U the figure was 0.799; with A45C U79C, 0.0791. As to A45C U79G, the self-cleavage came out at 0.293. For the variant A45C U46A, the self-cleavage was 0.499.

On to A45C U47C, for which the self-cleavage was 0.598.

Turning to A45C G80C, the self-cleavage was 0.0504. With A45C G74A the figure was 0.354.

With A45C G74C, the self-cleavage was 0.0594. Then C44U G81A, with 0.224; and C44G A70U, with 0.804; and A45G A87U, with 0.911.

In the case of C44G C49G, the self-cleavage worked out at 0.68. As to C44A G81A, the self-cleavage was 0.125.

As for C44A G81C, the self-cleavage was found to be 0.178. With C44U C75U the figure was 0.157; with C44U C75G, 0.106; with C44G C63G, 0.441. With A45G U65C the figure was 1.01; with C44A C58U, 0.689. With A45C C58U the figure was 0.831; with A45C C58A, 0.519. For C44A G76U, the self-cleavage is 0.767. With C44A G76C, the self-cleavage worked out at 0.614. Then C44U C57A, with 0.672; and A45G C63G, with 0.739. With A45G C63U the figure was 0.956; with A45U C64G, 0.671; with C44U C85G, 0.673. With A45U G50U the figure was 0.793. For C44G G73C, the self-cleavage was determined as 0.655.

As to A45G C62A, the self-cleavage was 0.975. With C44U C63U the figure was 0.806; with A45C A70C, 0.615.

Turning to A45C A70U, the self-cleavage is 0.508.

Turning to A45C A70G, the self-cleavage stood at 0.655. On to A45C G68U, for which the self-cleavage was 0.604.

Turning to C44U A87C, the self-cleavage came out at 0.618. Consider C44G A78U, for which the self-cleavage was determined as 0.19. With C44A U69A the figure was 0.727; with C44A U69C, 0.677. With A45U C61G the figure was 0.815; with A45U C85G, 0.847; with A45G G54C, 0.65. Then A45G G59A, with 1.06; and C44A G74C, with 0.237. As to A45G G81A, the self-cleavage came to 0.435. With C44G G50A the figure was 0.657. For the variant A45C C85G, the self-cleavage worked out at 0.609. Consider C44G C66G, for which the self-cleavage was found to be 0.554. Take A45C C62U: the self-cleavage was 0.895. As for A45U C58A, the self-cleavage came to 0.539. With C44G G52U the figure was 0.727. With C44G G52A the figure was 0.636; with A45C A87G, 0.554; with C44G U79A, 0.388. As to C44U C66G, the self-cleavage came to 0.895. C44U C66A: the self-cleavage came out at 0.677. As to C44U C48A, the self-cleavage turned out to be 0.779. In the case of C44U U69C, the self-cleavage was determined as 0.814. Take C44U U69A: the self-cleavage was determined as 0.787. With C44A C66U, the self-cleavage is 0.809. With A45C G67C the figure was 0.731; with A45C U72G, 1.11; with A45C U72A, 0.89. Turning to A45C A56C, the self-cleavage stood at 0.712. Then A45G G53A, with 0.991.
